According to patent US20120321557A1 (FORERUNNER PHARMA RESEARCH, published 2012):

Tests used:
human ICAM1 = target: T1, human ICAM1 (human, UniProt P05362 28-532); test: FACS on ICAM1-expressing BaF3 transfectant, anti-mouse IgG-FITC detection
T1 construct: also called ICAM1/BaF3 (cells that carry it)
Method: (§1) Next, using these cell lines thus established, the cross-reactivity of IB23 with the ICAM family was analyzed. Each 10 μg/ml of the IB23 antibody, an anti-human ICAM1 antibody (R&D Systems, Inc., #BBA3), and an anti-human ICAM5 antibody (R&D Systems, Inc., #MAB1950) were reacted with ICAM1/BaF3 and ICAM5/BaF3. Then, after staining with an anti-mouse IgG-FITC antibody (Beckman Coulter #IM0819), the binding of each antibody was analyzed by FACS (Becton, Dickinson and Company).

human ICAM5 = target: T2, human ICAM5 (human, UniProt Q9UMF0 32-924); test: FACS on ICAM5-expressing BaF3 transfectant, anti-mouse IgG-FITC detection
T2 construct: also called ICAM5/BaF3 (cells that carry it)
T2 sequence: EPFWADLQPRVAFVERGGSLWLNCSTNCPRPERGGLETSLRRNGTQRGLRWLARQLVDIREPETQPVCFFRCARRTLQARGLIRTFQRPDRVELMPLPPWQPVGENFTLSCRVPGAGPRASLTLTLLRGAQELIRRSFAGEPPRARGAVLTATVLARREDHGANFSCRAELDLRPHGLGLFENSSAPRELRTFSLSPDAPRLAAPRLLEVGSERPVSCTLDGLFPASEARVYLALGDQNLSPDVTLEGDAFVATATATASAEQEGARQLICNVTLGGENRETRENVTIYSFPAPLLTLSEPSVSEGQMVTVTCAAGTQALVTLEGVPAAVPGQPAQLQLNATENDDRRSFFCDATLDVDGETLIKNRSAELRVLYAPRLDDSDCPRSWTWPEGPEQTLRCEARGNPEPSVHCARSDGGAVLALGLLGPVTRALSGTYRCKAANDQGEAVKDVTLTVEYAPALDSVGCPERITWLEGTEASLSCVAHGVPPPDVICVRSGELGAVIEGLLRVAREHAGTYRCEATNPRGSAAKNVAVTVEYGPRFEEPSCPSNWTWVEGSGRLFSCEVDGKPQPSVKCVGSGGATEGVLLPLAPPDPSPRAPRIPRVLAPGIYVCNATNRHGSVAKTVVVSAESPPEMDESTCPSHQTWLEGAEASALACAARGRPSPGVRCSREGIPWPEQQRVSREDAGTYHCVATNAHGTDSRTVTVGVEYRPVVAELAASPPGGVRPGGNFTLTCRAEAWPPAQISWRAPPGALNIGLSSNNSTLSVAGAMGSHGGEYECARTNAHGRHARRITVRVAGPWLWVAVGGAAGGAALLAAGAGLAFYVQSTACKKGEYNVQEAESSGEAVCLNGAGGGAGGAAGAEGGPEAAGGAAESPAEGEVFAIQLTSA
Method: as §1

T1 sequence (P05362 28-532 K469E limits assumed): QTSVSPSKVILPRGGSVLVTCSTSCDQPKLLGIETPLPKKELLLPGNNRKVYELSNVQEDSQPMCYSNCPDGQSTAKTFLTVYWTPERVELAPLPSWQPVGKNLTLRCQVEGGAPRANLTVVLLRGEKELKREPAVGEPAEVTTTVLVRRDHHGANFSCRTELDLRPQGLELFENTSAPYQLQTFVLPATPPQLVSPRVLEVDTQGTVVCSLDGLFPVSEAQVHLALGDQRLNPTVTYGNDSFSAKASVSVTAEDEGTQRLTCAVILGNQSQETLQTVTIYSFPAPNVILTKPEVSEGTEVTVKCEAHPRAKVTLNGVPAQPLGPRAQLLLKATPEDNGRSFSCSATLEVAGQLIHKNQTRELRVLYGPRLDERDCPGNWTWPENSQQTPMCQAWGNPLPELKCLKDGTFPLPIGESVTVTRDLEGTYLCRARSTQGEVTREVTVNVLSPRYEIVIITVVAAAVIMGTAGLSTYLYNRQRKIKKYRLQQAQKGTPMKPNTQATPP

B1: mouse monoclonal antibody IB23 (antibody, V domains shown)
VH: QVQLQQSGAELAKPGASVKMSCKASGYTFTTYWMHWVKQRPGQGLEWIGYINPNTDYTEYNQKFKDKATLTADKSSSTAFMQLSSLTSEDSAVYYCASSRDAYHGTYWGQGTLVTVSA
VL: DIVMTQSPATLSVTPGDRVSLSCRASQSISDYLHWYQQKSHESPRLLIRYASQSISGIPSRFSGSGSGSDFTLSINNVEPEDVGVYYCQNGHNFPLTFGAGTKLELK
notes: Mouse hybridoma antibody purified on Protein G and detected with anti-mouse IgG-FITC; also called IB23 antibody; mouse IB23 antibody
- binding result (human ICAM1): no binding (tested: 10 µg/ml)
- binding result (human ICAM5): no binding (tested: 10 µg/ml)
